B1: 18-nt match checkpoint: λ1 sgRNA (3-stem loop) / TS / NTS (mixed)
RNA: GACGCAUAAAGAUGAGACGCGUUUUAGAGCUAGAAAUAGCAAGUUAAAAUAAGGCUAGUCCGUUAUCAACUUGAAAAAGUGGCACCGAGUCGGUGCUUUU
DNA 1: CGTGATTCCAGCGTCTCATCTTTATGCGAGTGTACTCG
DNA 2: CGAGTACACTATTGCGGGACGCTATTATTGGAATCACG
B2: 18-nt match catalytic: λ1 sgRNA (3-stem loop) / TS / NTS (mixed)
RNA: B1 RNA
DNA 1: CGTGATTCCAGCGTCTCATCTTTATGCGAGTGTACTCGTCTTGC
DNA 2: GCAAGACGAGTACACTCGCATAAAACGCTATTATTGGAATCACG

Legend:
[1] = biological target: T1, SpCas9 wild type (Streptococcus pyogenes, UniProt Q99ZW2 1-1368); test: cryo-EM; 1 mM Mg2+; checkpoint state; SEC binding: 20 mM HEPES-KOH pH 7.5, 200 mM KCl, 2 mM MgCl2, room temperature, 371 pmol dCas9, 400 pmol sgRNA, 250 pmol DNA; crystal complex: 20 mM HEPES-KOH pH 7.5, 250 mM KCl, 1 mM DTT, crystals at 20 C; settings: protein: recombinant; tags: His6-MBP-TEV tag removed by TEV protease; sgRNA strand 1; TS/NTS duplex with internal mismatched region; 18 nt guide-TS complementarity
T1 sequence (Q99ZW2 whole entry): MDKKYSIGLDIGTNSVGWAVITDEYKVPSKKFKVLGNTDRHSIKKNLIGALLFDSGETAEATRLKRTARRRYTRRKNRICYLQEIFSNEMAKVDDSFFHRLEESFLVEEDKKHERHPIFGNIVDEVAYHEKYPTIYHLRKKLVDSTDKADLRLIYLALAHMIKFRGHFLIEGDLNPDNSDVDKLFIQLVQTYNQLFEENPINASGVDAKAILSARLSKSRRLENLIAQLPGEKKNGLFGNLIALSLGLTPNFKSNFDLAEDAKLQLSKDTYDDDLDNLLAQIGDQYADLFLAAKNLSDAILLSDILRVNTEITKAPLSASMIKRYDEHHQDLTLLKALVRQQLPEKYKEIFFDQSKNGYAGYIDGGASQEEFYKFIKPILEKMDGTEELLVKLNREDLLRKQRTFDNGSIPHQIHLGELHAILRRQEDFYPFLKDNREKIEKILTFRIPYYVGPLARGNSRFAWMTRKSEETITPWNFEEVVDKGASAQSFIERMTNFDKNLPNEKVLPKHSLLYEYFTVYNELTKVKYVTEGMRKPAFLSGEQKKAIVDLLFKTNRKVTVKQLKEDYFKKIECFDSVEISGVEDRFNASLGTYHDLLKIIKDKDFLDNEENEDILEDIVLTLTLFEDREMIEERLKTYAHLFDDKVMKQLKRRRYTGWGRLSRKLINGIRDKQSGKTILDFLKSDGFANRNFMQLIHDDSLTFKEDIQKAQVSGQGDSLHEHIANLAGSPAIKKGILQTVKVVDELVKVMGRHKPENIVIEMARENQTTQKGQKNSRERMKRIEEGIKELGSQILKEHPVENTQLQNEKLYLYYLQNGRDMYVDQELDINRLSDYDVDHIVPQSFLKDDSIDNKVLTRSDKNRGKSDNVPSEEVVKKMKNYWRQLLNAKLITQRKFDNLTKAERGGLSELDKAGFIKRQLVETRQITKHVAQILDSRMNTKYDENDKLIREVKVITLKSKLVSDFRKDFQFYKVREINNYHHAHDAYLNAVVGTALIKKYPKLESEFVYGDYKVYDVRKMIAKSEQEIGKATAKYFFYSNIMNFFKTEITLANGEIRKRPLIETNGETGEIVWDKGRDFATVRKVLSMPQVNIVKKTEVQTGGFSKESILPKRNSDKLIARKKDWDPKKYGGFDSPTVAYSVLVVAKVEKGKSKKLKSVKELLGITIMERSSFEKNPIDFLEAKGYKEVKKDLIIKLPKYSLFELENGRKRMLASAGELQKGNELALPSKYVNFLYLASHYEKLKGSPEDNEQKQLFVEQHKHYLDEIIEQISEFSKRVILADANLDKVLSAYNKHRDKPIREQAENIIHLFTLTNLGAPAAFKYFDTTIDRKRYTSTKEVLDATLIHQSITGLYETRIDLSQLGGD

[2] = biological target: T1, SpCas9 wild type; test: cryo-EM; 10 mM Mg2+; catalytically active state, TS and NTS cleaved; SEC binding: 20 mM HEPES-KOH pH 7.5, 200 mM KCl, 2 mM MgCl2, room temperature, 371 pmol dCas9, 400 pmol sgRNA, 250 pmol DNA; crystal complex: 20 mM HEPES-KOH pH 7.5, 250 mM KCl, 1 mM DTT, crystals at 20 C; settings: protein: recombinant; tags: His6-MBP-TEV tag removed by TEV protease; sgRNA strand 1; TS/NTS duplex with internal mismatched region; 18 nt guide-TS complementarity; both DNA strands cleaved in structure

Row | Binder | binding result [1] | binding result [2]
1 | B1 | binds | 
2 | B2 |  | binds
